Measured values: patent publication US20090214524A1

Target: Bub3 (UniProt O43684)
Assay: cell-based or functional assay

UniProt O43684, sequence (O43684 whole entry): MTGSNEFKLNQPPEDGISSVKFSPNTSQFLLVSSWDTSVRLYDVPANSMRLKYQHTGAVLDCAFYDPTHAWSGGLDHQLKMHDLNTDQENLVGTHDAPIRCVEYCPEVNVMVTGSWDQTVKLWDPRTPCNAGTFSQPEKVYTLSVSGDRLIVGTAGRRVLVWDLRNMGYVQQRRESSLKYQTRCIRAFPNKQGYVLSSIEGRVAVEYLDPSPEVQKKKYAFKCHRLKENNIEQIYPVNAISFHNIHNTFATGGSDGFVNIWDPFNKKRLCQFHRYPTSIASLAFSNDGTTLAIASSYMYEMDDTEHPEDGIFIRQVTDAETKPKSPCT

restoration of colcemid-mediated mitotic checkpoint arrest (BrdU incorporation) in T98G cells depleted of endogenous BubR1: 50%
Substance: myc-tagged siRNA-resistant wild type BubR1 (pcDNA3-myc-BubR1^ΔsiRNA) (from UniProt O60566 1-1050)
